Target: TLR-4 extracellular domain (Homo sapiens, UniProt O00206 O00206:24-631)
Test: ELONA; 200 nM aptamer, 20 mM Tris pH 7.4, 1 mM MgCl2, 150 mM NaCl, 5 mM KCl, 37 C; among the most efficient binders
Conditions: tags: C-terminal 6xHis, expressed in baculovirus; label: 5' digoxigenin (ELONA); predicted G4
Method: It was determined if the selected aptamers recognized the TLR-4 protein. To that end, 100 ng/well of 6×HIS-recombinant TLR-4 were added to a 96-well microtiter plate and were incubated at 4° C. for 16 h. Subsequently, individual aptamers labeled with digoxigenin in the 5′ end were diluted at a concentration of 5 μg/mL and then denatured for 10 min at 95° C. and cooled for 10 min on ice. Then, 20 pmol of each of the aptamers in 100 μl (200 nM) of aptamer buffer were added to each well and the plate was incubated for 1 h at 37° C. Finally, the plate was incubated with peroxidase-conjugated anti-digoxigenin antibodies and developed using ABTS. An anti-Li H2A DNA aptamer was used as a positive control (Martin et al., 2013, PLoS ONE 8: e78886).
By means of the same type of assay, aptamers TLRApt#2F and TLRApt#3R were identified.

Chain of TLR-4 extracellular domain (O00206 24-631, one chain of several): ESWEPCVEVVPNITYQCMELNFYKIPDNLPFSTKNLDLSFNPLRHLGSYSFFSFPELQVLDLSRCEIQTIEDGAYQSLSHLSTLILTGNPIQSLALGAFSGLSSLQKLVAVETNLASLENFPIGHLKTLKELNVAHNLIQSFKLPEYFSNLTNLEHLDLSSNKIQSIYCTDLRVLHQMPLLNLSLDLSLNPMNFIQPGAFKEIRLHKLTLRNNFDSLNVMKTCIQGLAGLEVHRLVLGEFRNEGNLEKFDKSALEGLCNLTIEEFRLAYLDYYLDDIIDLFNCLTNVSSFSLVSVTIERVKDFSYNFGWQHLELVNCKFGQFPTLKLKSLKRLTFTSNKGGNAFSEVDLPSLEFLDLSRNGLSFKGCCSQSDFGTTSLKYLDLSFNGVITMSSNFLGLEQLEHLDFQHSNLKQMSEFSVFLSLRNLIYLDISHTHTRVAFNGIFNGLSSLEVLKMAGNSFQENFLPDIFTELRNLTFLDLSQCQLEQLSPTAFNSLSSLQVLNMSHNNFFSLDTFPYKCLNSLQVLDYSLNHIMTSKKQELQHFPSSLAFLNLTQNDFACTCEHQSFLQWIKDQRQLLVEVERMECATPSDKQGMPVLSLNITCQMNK

Binder | binding result
TLRApt#1R (ssDNA) DNA: GTTGCTCGTATTTAGGGCCACCGGCACGGGACAAGGCGCGGGACGGCGTAGATCAGGTCGACACCAGTCTTCATCCGC | binds
TLRApt#4F (ssDNA) DNA: GCGGATGAAGACTGGTGTGCCAATAAACCATATCGCCGCGTTAGCATGTACTCGGTTGGCCCTAAATACGAGCAAC | binds

From US20260218204, “APTAMERS SPECIFIC FOR TLR-4 AND USES THEREOF” (Merck Patent GmbH, published 2026)
